{"source": "paper PMC8342540", "about": "“The middle lipin domain adopts a membrane-binding dimeric protein fold” (Nature Communications, 2021)", "key": {"[1]": {"molecular_target": "the molecule itself", "assay": "SEC; Superdex 200 10/300 in 20 mM Tris pH 8.0, 150 mM NaCl, 10 mM 2-mercaptoethanol; elution compared with MW standards"}, "[2]": {"molecular_target": "the molecule itself", "assay": "SEC-MALS; 1.6 mg injected onto Superdex 200 Increase 10/300, flow 0.35 ml/min"}, "[3]": {"molecular_target": "the molecule itself", "assay": "crystal structure; mouse lipin 2 M-Lip^xtal, 0.2 M calcium acetate, 20% PEG 3350, hanging drop, RT"}}, "data": [{"protein": "full-length mouse lipin 1 alpha (residues 1–891), from Sf9 cells (natural protein, UniProt Q91ZP3-2 1-891, looked up, mouse lipin 1 alpha, full length, residues 1–891 (891 residues printed); Vector YM-Bac3, a modified pFastBac Htb; also called wild-type lipin 1; recombinant lipin 1; source: Sf9, baculovirus, purified (Ni-NTA, Streptactin-XT, SEC)) MNYVGQLAGQVFVTVKELYKGLNPATLSGCIDIIVIRQPNGSLQCSPFHVRFGKMGVLRSREKVVDIEINGESVDLHMKLGDNGEAFFVQETDNDQEIIPMYLATSPILSEGAARMESQLKRNSVDRIRCLDPTTAAQGLPPSDTPSTGSLGKKRRKRRRKAQLDNLKRDDNVNSSEDEDMFPIEMSSDEDTAPMDGSRTLPNDVPPFQDDIPKENFPSISTHPQSASYPSSDREWSPSPSPSGSRPSTPKSDSELVSKSADRLTPKNNLEMLWLWGELPQAAKSSSPHKMKESSPLGSRKTPDKMNFQAIHSESSDTFSDQSPTMARGLLIHQSKAQTEMQFVNEEDLESLGAAAPPSPVAEELKAPYPNTAQSSSKTDSPSRKKDKRSRHLGADGVYLDDLTDMDPEVAALYFPKNGDPGGLPKQASDNGARSANQSPQSVGGSGIDSGVESTSDSLRDLPSIAISLCGGLSDHREITKDAFLEQAVSYQQFADNPAIIDDPNLVVKVGNKYYNWTTAAPLLLAMQAFQKPLPKATVESIMRDKMPKKGGRWWFSWRGRNATIKEESKPEQCLTGKGHNTGEQPAQLGLATRIKHESSSSDEEHAAAKPSGSSHLSLLSNVSYKKTLRLTSEQLKSLKLKNGPNDVVFSVTTQYQGTCRCEGTIYLWNWDDKVIISDIDGTITRSDTLGHILPTLGKDWTHQGIAKLYHKVSQNGYKFLYCSARAIGMADMTRGYLHWVNERGTVLPQGPLLLSPSSLFSALHREVIEKKPEKFKVQCLTDIKNLFFPNTEPFYAAFGNRPADVYSYKQVGVSLNRIFTVNPKGELVQEHAKTNISSYVRLCEVVDHVFPLLKRSHSCDFPCSDTFSNFTFWREPLPPFENQDMHSASA", "values": [{"measurement": "binding result", "setting": "[1]", "value": "binds"}]}, {"protein": "mouse lipin 1 M-Lip^xtal domain (residues 458–548), as used in SEC-MALS (domain or fragment, UniProt Q91ZP3-2 458-548, looked up, mouse lipin 1, M-Lip^xtal domain, residues 458–548; numbers count on: mouse lipin 1 alpha (891 residues); The stated dimer mass of 26 kDa (13 kDa a chain) would fit the 91 residues plus a vector-encoded His tag (surmise); source: E. coli BL21 (DE3) RIPL, purified (Ni-NTA, SEC)) SLRDLPSIAISLCGGLSDHREITKDAFLEQAVSYQQFADNPAIIDDPNLVVKVGNKYYNWTTAAPLLLAMQAFQKPLPKATVESIMRDKMP", "values": [{"measurement": "stoichiometry N", "setting": "[2]", "value": 2}]}, {"protein": "mouse lipin 2 M-Lip^xtal domain (residues 459–549) (domain or fragment, UniProt Q99PI5 459-549, looked up, mouse lipin 2, M-Lip^xtal domain, residues 459–549; Cloned into pET28b with NdeI and NotI; the purification section names pET28a; source: E. coli BL21 (DE3) RIPL, purified (Ni-NTA, SEC)) SAMDLPDVTLSLCGGLSENGEISKEKFMEHIITYHEFAENPGLIDNPNLVIRIYNRYYNWALAAPMILSLQVFQKSLPKATVESWVKDKMP", "values": [{"measurement": "binding result", "setting": "[3]", "value": "binds"}]}]}
